How the values were obtained:
[1] = molecular target: Tt-RuvC as crystallised in complex with a synthetic Holliday junction (T. thermophilus) (UniProt Q5SJC4); assay: crystal structure; Tt-RuvC with synthetic Holliday junction (oligonucleotides J221 and J222), crystals from 0.3-0.5 M ammonium phosphate; molecular replacement, 3.75 Å; asymmetric unit holds a RuvC dimer and one HJ
Tt-RuvC E70Q L80C = molecular target: T1, Tt-RuvC E70Q L80C (Thermus thermophilus, UniProt Q5SJC4 1-166, E70Q;L80C); assay: site-specific thiol cross-linking; 5 mM Mg2+; Cross-linking: 100 mM NaCl, 10 mM HEPES pH 7.0, 0.5 mM DTT, 15% glycerol, 5 mM MgCl2 (+100 mM KCl for backbone thiols), protein:DNA 1:1, 37 C 2.5 h then 25 C overnight; conditions: protein: recombinant, tags: N-terminal His-tag, chain copies: 2, Holliday junction of 2 strands, TTT loops
T1 sequence: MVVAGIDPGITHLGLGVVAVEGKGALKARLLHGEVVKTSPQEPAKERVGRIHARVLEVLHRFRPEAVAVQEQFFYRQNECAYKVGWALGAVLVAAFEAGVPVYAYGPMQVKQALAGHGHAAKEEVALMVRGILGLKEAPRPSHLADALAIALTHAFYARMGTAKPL

Tt-RuvC E70Q Q77C = molecular target: T2, Tt-RuvC E70Q Q77C (Thermus thermophilus, UniProt Q5SJC4 1-166, E70Q;Q77C); assay: site-specific thiol cross-linking; 5 mM Mg2+; high efficiency; Cross-linking: 100 mM NaCl, 10 mM HEPES pH 7.0, 0.5 mM DTT, 15% glycerol, 5 mM MgCl2 (+100 mM KCl for backbone thiols), protein:DNA 1:1, 37 C 2.5 h then 25 C overnight; conditions: protein: recombinant; tags: N-terminal His-tag; chain copies: 2; Holliday junction of 2 strands, TTT loops, 2 bp homology core
T2 sequence: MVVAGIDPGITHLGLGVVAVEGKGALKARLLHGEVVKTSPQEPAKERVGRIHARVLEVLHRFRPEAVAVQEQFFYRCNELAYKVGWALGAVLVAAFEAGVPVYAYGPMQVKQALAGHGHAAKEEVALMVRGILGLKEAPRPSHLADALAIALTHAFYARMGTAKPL

Tt-RuvC E70Q R76C = molecular target: T3, Tt-RuvC E70Q R76C (Thermus thermophilus, UniProt Q5SJC4 1-166, E70Q;R76C); assay: as above; conditions: protein: recombinant; tags: N-terminal His-tag; chain copies: 2; Holliday junction of 2 strands, TTT loops, 2 bp homology core
T3 sequence: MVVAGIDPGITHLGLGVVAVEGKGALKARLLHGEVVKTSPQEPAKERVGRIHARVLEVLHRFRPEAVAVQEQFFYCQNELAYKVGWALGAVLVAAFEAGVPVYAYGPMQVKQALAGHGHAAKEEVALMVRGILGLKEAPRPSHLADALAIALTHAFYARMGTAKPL

Tt-RuvC E70Q M108C = molecular target: T4, Tt-RuvC E70Q M108C (Thermus thermophilus, UniProt Q5SJC4 1-166, E70Q;M108C); assay: site-specific thiol cross-linking; 5 mM Mg2+, 100 mM KCl; Cross-linking: 100 mM NaCl, 10 mM HEPES pH 7.0, 0.5 mM DTT, 15% glycerol, 5 mM MgCl2 (+100 mM KCl for backbone thiols), protein:DNA 1:1, 37 C 2.5 h then 25 C overnight; conditions: protein: recombinant; tags: N-terminal His-tag; chain copies: 2; Holliday junction of 4 strands, immobile
T4 sequence: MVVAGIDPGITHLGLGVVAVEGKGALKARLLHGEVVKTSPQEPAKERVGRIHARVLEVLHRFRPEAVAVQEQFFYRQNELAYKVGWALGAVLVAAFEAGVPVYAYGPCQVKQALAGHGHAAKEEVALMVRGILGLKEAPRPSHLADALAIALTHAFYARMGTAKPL

Tt-RuvC E70Q T11C [2] = molecular target: T5, Tt-RuvC E70Q T11C (Thermus thermophilus, UniProt Q5SJC4 1-166, E70Q;T11C); assay: site-specific thiol cross-linking; 5 mM Mg2+, 100 mM KCl; most efficient; Cross-linking: 100 mM NaCl, 10 mM HEPES pH 7.0, 0.5 mM DTT, 15% glycerol, 5 mM MgCl2 (+100 mM KCl for backbone thiols), protein:DNA 1:1, 37 C 2.5 h then 25 C overnight; conditions: protein: recombinant; tags: N-terminal His-tag; chain copies: 2; Holliday junction of 4 strands, immobile
T5 sequence: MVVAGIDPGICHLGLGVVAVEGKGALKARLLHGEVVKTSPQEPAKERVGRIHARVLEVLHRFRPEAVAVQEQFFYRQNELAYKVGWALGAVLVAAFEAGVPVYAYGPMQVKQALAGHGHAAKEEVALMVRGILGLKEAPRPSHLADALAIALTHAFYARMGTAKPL

Tt-RuvC E70Q P40C [3] = molecular target: T6, Tt-RuvC E70Q P40C (Thermus thermophilus, UniProt Q5SJC4 1-166, E70Q;P40C); assay: site-specific thiol cross-linking; 5 mM Mg2+, 100 mM KCl; single modification; Cross-linking: 100 mM NaCl, 10 mM HEPES pH 7.0, 0.5 mM DTT, 15% glycerol, 5 mM MgCl2 (+100 mM KCl for backbone thiols), protein:DNA 1:1, 37 C 2.5 h then 25 C overnight; conditions: protein: recombinant; tags: N-terminal His-tag; chain copies: 2; Holliday junction of 4 strands
T6 sequence: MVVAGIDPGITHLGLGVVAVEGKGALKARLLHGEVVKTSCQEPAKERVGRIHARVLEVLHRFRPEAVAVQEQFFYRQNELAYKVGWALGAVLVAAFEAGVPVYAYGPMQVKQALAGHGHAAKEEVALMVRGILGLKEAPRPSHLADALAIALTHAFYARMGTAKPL

Tt-RuvC E70Q T11C [4] = molecular target: T5, Tt-RuvC E70Q T11C; assay: as above; conditions: protein: recombinant; tags: N-terminal His-tag; chain copies: 2; Holliday junction of 4 strands
Tt-RuvC E70Q P40C [5] = molecular target: T6, Tt-RuvC E70Q P40C; assay: site-specific thiol cross-linking; 5 mM Mg2+, 100 mM KCl; most efficient; Cross-linking: 100 mM NaCl, 10 mM HEPES pH 7.0, 0.5 mM DTT, 15% glycerol, 5 mM MgCl2 (+100 mM KCl for backbone thiols), protein:DNA 1:1, 37 C 2.5 h then 25 C overnight; conditions: protein: recombinant; tags: N-terminal His-tag; chain copies: 2; Holliday junction of 4 strands, immobile
Tt-RuvC E70Q R140C = molecular target: T7, Tt-RuvC E70Q R140C (Thermus thermophilus, UniProt Q5SJC4 1-166, E70Q;R140C); assay: site-specific thiol cross-linking; 5 mM Mg2+, 100 mM KCl; Cross-linking: 100 mM NaCl, 10 mM HEPES pH 7.0, 0.5 mM DTT, 15% glycerol, 5 mM MgCl2 (+100 mM KCl for backbone thiols), protein:DNA 1:1, 37 C 2.5 h then 25 C overnight; conditions: protein: recombinant; tags: N-terminal His-tag; chain copies: 2; Holliday junction of 4 strands, immobile
T7 sequence: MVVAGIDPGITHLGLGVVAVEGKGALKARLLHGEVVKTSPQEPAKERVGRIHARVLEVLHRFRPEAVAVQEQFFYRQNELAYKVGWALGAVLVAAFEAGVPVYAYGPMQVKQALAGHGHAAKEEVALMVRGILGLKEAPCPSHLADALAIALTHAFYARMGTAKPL

Tt-RuvC E70Q = molecular target: T8, Tt-RuvC E70Q (Thermus thermophilus, UniProt Q5SJC4 1-166, E70Q); assay: X-ray crystallography (3.75 A); 0.3-0.5 M ammonium phosphate; Cross-linking: 100 mM NaCl, 10 mM HEPES pH 7.0, 0.5 mM DTT, 15% glycerol, 5 mM MgCl2 (+100 mM KCl for backbone thiols), protein:DNA 1:1, 37 C 2.5 h then 25 C overnight; conditions: protein: recombinant; tags: none (N-terminal His-tag removed with PreScission protease); chain copies: 2; Holliday junction of 2 strands, TTT loops on two arms
T8 sequence: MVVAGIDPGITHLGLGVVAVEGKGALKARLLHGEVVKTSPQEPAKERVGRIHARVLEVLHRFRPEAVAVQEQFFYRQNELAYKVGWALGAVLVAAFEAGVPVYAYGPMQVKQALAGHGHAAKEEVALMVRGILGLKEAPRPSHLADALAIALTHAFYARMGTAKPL

[6] = molecular target: the molecule itself; assay: crystal structure; apo Tt-RuvC, crystals from 0.1 M citric acid (pH 3.5) and 1.5 M NaCl; SAD, 1.35 Å; asymmetric unit holds a RuvC dimer

“Tt-RuvC as crystallised in complex with a synthetic Holliday junction (from UniProt Q5SJC4 1-166) (enzyme)” was tested, and the stoichiometry N [1] was 2.

B1: HJ-25-h (structured_DNA)
DNA 1: CAATCGGCCAAGACCTTTGGTCTTGCGGCAGAT
DNA 2: ATCTGCCGCATATGGTTTCCAGATGGCCGATTG
modifications: thiol on guanine 25 of one strand
B1: binds (Tt-RuvC E70Q L80C; 2 bp homology core).

B2: HJ-25 (structured_DNA)
DNA 1: CAATCGGCCAAGACCTTTGGTCTTGCGGCAGAT
DNA 2: ATCTGCCGCATATGGTTTCCAGATGGCCGATTG
modifications: thiol (cysteamine) on position 2 of guanine 25 of both strands
B2: binds (Tt-RuvC E70Q Q77C); binds (Tt-RuvC E70Q R76C).

B3: HJ-28bb (structured_DNA)
DNA 1: GACGGCCTCGCAATCGACTATGACCGAGCACGCGAGATGT
DNA 2: ACATCTCGCGTGCTCGGTCATTCTGCAGATGCGGAGTGAA
DNA 3: TTCACTCCGCATCTGCAGATTCTGGCTGTGGCGTGTTTCT
DNA 4: AGAAACACGCCACAGCCAGAAAGTCGATTGCGAGGCCGTC
modifications: thiol tether on phosphate after nt 24 of strands 2 and 4
B3: binds (Tt-RuvC E70Q M108C); binds (Tt-RuvC E70Q T11C [2]).

B4: HJ-28bb-h (structured_DNA)
DNA 1: GACGGCCTCGCAATCGACTATGACCGAGCACGCGAGATGT
DNA 2: ACATCTCGCGTGCTCGGTCATTCTGCAGATGCGGAGTGAA
DNA 3: TTCACTCCGCATCTGCAGATTCTGGCTGTGGCGTGTTTCT
DNA 4: AGAAACACGCCACAGCCAGAAAGTCGATTGCGAGGCCGTC
modifications: thiol tether on phosphate after nt 24 of strand 4 only
B4: binds (Tt-RuvC E70Q P40C [3]).

B5: HJ-29bb-h (structured_DNA)
DNA 1: GACGGCCTCGCAATCAGCTATGACCGAGCACGCGAGATGT
DNA 2: ACATCTCGCGTGCTCGGTCATTCTGCAGATGCGGAGTGAA
DNA 3: TTCACTCCGCATCTGACGATTCTGGCTGTGGCGTGTTTCT
DNA 4: AGAAACACGCCACAGCCAGAAAGCTGATTGCGAGGCCGTC
modifications: thiol tether on phosphate after nt 25 of strand 4 only; the table lists one shared single B strand (S19) for HJ-28/29
B5: binds (Tt-RuvC E70Q T11C [4]).

B6: HJ-29bb (structured_DNA)
DNA 1: GACGGCCTCGCAATCAGCTATGACCGAGCACGCGAGATGT
DNA 2: ACATCTCGCGTGCTCGGTCATTCGTCAGATGCGGAGTGAA
DNA 3: TTCACTCCGCATCTGACGATTCTGGCTGTGGCGTGTTTCT
DNA 4: AGAAACACGCCACAGCCAGAAAGCTGATTGCGAGGCCGTC
modifications: thiol tether on phosphate after nt 25 of strands 2 and 4
B6: binds (Tt-RuvC E70Q M108C); binds (Tt-RuvC E70Q P40C [5]).

B7: HJ-3bb (structured_DNA)
DNA 1: GACGGCCTCGCATTCGGCTATGACCGAGCACGCGAGATGT
DNA 2: ACATCTCGCGTGCTCGGTCATTCGGCAAGTGCGGAGTGAA
DNA 3: TTCACTCCGCACTTGCCGATTCTGGCTGTGGCGTGTTTCT
DNA 4: AGAAACACGCCACAGCCAGAAAGCCGAATGCGAGGCCGTC
modifications: thiol tether on phosphate after nt 13 of strands 1 and 3
B7: binds (Tt-RuvC E70Q R140C).

B8: HJ J221/J222 (structured_DNA)
DNA 1: CAATCGGCTTTGACCTTTGGTCAATCGGCAGAT
DNA 2: ATCTGCCGATTCTGGTTTCCAGAAAGCCGATTG
B8: binds (Tt-RuvC E70Q).

B9: HJ-8-h (structured_DNA)
DNA 1: CAATCGGGTATGACCTTTGGTCATTCGGCAGAT
DNA 2: ATCTGCCGATTCTGGTTTCTAGAAACCCGATTG
modifications: thiol on guanine 8 of one strand
B9: binds (Tt-RuvC E70Q L80C).

B10: HJ-26-h (structured_DNA)
DNA 1: CAATCGGCTATGACCTTTGGTCATTGGGCAGAT
DNA 2: ATCTGCCCATTCTGGTTTCCACAAAGCCGATTG
modifications: thiol on guanine 26 of one strand
B10: binds (Tt-RuvC E70Q L80C).

B11: RuvC protein from T. thermophilus (Tt-RuvC), unliganded (apo) crystal form (enzyme)
chain: MVVAGIDPGITHLGLGVVAVEGKGALKARLLHGEVVKTSPQEPAKERVGRIHARVLEVLHRFRPEAVAVEEQFFYRQNELAYKVGWALGAVLVAAFEAGVPVYAYGPMQVKQALAGHGHAAKEEVALMVRGILGLKEAPRPSHLADALAIALTHAFYARMGTAKPL
modifications: selenomethionine-substituted protein (SAD data)
notes: RuvC Holliday junction resolvase, Thermus thermophilus; No PDB id is printed for the apo structure; also called apo Tt-RuvC; RuvC resolvase; source: E. coli, purified (nickel column, tag cleavage, Mono-S column)
With B11 the “stoichiometry N” value [6] was 2.

From PMC3834835, “Crystal structure of RuvC resolvase in complex with Holliday junction substrate” (Nucleic Acids Research, 2013)
